Test results: US20210371503A1 (UNIVERSITY OF COLOGNE, published 2021)

Legend:
[1] = molecular target: T1, receptor-binding domain (RBD) of the spike (S) protein of SARS-CoV-2 (SARS-CoV-2, UniProt P0DTC2 319-541); assay: ELISA, coated RBD [cont'd]
T1 construct: also called soluble RBD

[2] = molecular target: S1 (truncated S1 subunit); assay: ELISA, coated truncated S1 [cont'd]
[3] = molecular target: T1, receptor-binding domain (RBD) of the …
[4] = molecular target: T1, receptor-binding domain (RBD) of the …; assay: ELISA, coated RBD [cont'd]; remark: listed apart in the source
[5] = molecular target: S1 (truncated S1 subunit); assay: ELISA, coated truncated S1 [cont'd]; remark: listed apart in the source
[6] = molecular target: T1, receptor-binding domain (RBD) of the …; assay: ELISA, coated RBD
[7] = molecular target: S1 (truncated S1 subunit); assay: ELISA, coated truncated S1

Row | Binder | EC50 [1] | EC50 [2] | EC50 [6] | EC50 [7] | further results
1 | HbnC4t1p1_D5 (antibody, V domains shown) VH: EVQLVESGGGLVQPGRSLRLSCAASGFTFDDYAMHWVRQAPGKGLEWVSGISWNSGSIGYADSVKGRFTISRDNAKNSLYLQMNSLRAEDTGLYYCAKDINYDSGGYHKNYFDYWGQGTLVTVSS VL: DIQMTQSPSSLSASVGDRATITCRASQSISSYLNWYQEKPGKAPKLLIYAASSLQSGVPSRFSGSGSGTDFTLTISSLQPEDFATYYCQQSYSNPLTFGGGTKVEIK | < 1000 µg/mL | < 1000 µg/mL | – | – | –
2 | MnC4t2p1_B3 (antibody, V domains shown) VH: EVQLVESGGHLVQPGRSLRLSCAASGFTFDDYAMHWVRQVPGKGLEWVSGISWNGGILDYADSVKGRFTISRDNAKNSLYLHMRSLRTDDTALYYCAKDLRRQDYYADWYFDLWGRGTLVTVSS VL: DIQMIQSPSSVSASVGDRVTITCRASQGISSWLAWYQQKPGKAPKLLIYAASTLLSAVPSRFSGSGSGTDFTLTISSLQPEDFATYYCQQGNSFPFTFGPGTIVDV | – | – | – | – | Kd [3]: 0.09 nM; EC50 [4]: < 100 µg/mL; EC50 [5]: < 100 µg/mL
3 | CnC2t1p1_B10 (antibody, V domains shown) VH: QVQLVQSGAEVKKPGSSVKVSCKASGGTFSSYAISWVRQAPGQGLEWMGGIIPIFGTANYAQKFQGRVTITADKSTSTAYMELSSLRSEDTAVYYCARVSGYDSSGYWGDYWGQGTLVTVSS VL: EIVLTQSPATLSLSPGERATLSCRASQSVSSYLAWYQQKPGQAPRLLIYDASNRATGIPARFSGSGSGTDFTLTISSLEPEDFAVYYCQQRSNWPPALTFGGGTKVEIK | – | – | < 100 µg/mL | < 100 µg/mL | –
4 | MnC2t2p1_C11 (antibody, V domains shown) VH: QVQLVQSGAEVKKPGSSVKVSCKASGGTFSRYTIIWVRQAPGQGLEWMGRIIPILDIANYAQKFQGRVTITADKSTSTAYMELSSLRSEDTAVYYCAREGGLDYFGSRNSGWTYTWFDPWGQGTLVTVSS VL: DIQMTQSPSSLSASVGDRVTITCRASQNISSYLNWYQQKPGKAPNLLIYAASSLQSGVPPRFSGSGSGTDFTLTISSLQPEDFATYYCQQSYSTLYSFGQGTKLEIK | – | – | – | – | Kd [3]: 0.02 nM; EC50 [4]: < 100 µg/mL; EC50 [5]: < 100 µg/mL
5 | MnC1t3p1_G9 (antibody, V domains shown) VH: EVQLLESGGGLVQPGGSLRLSCAASGFTFRNYAMTWVRQAPGKGLEWVSGISDSGDRTYNADSVKGRFSISRDNSKNTLHLQMNSLRAEDTAVYYCALASGSYFGGANYWGQGTLVTVSS VL: QAVVTQEPSLTVSPGGTVTLTCGSSTGPVTSDHYPYWFQQKPGQAPTTLIYDTNNKHSWTPARFSGSLLGGKAALTLSGAQPEDEAEYYCLLSYTGARVFGGGTKLTVL | – | – | – | – | EC50 [4]: < 100 µg/mL; EC50 [5]: < 100 µg/mL
6 | CnC2t1p1_B4 (antibody, V domains shown) VH: QVQLVQSGAEVKKPGASVKVSCKASGYTFTSYGISWVRQAPGQGLEWMGWISAYNGNTNYAQKLQGRVTMTTDTSTSTAYMELRSLRSDDTAVYYCARDGELLGWFDPWGQGTLVTVSS VL: QSALTQPASVSGSPGQSITISCTGTSSDVGSYNLVSWYQQHPGKAPKLMIYEGSKRPSGVSNRFSGSKSGNTASLTISGLQAEDEADYYCCSYAGSSTWVFGGGTKLTVL | – | – | < 100 µg/mL | < 100 µg/mL | –
7 | CnC2t1p1_E8 (antibody, V domains shown) VH: QVQLVQSGAEVKNPGASVKVSCKASGYIFTNYYIHWVRQAPGQGLEWVGWIHSLSGGTSYAQKFQGRVTLTRDASIRTAYMELSRLGSDDTALYYCARASVSTITDFDYWGQGTLVAVSS VL: QSALTQPASVSGSPGQSITISCTGTSGDVGSYNLVSWYQQHPGKAPKLVIYEATKRPSGVSNRFFASKSGNTASLTISGLQAEDEADYYCCSYAGVRTVVFGGGTKLTVL | – | – | < 100 µg/mL | < 100 µg/mL | –
8 | CnC2t1p1_G6 (antibody, V domains shown) VH: QVQLVQSGAEVKKPGASVKVSCKASGYIFTNYYIHWVRQAPGQGLEWVGWIHSLSGGTSYAQKFQGRVTLTRDAPIRTAYMELSGLGSDDTAVYYCARASVATITDFDYWGQGTLVAVSS VL: QSALTQPASVSGSPGQSITISCTGTSGDIGSYNLVSWYQQYPGKAPKLIIYEASKRPSGVSNRFFASKSGNTASLTISGLQAEDEADYYCCSYAGVRTVVFGGGTKLTVL | – | – | < 100 µg/mL | < 100 µg/mL | –
9 | CnC2t1p1_D6 (antibody, V domains shown) VH: EVQLVESGGGLVQPGRSLRLSCTASGFTFGDYAMSWFRQAPGKGLEWVGFIRSKAYGGTTEYAASVKGRFTISRDDSKSIAYLQMNSLKTEDTAVYYCTRVRRLWFGSYYYGMDVWGQGTTVTVSS VL: not shown | – | – | < 100 µg/mL | < 100 µg/mL | –
10 | HbnC3t1p1_G4 (antibody, V domains shown) VH: EVQLVESGGGLVQPGGSLRLSCAASGFTVSSNYMSWVRQAPGKGLEWVSVIYSGGSTFYADSVKGRFTISRDNSKNTLYLQMNSLRAEDTAVYYCARDFGDFFFDYWGQGTLVTVSS VL: EIVLTQSPGTLSLSPGERATLSCRASQSVSSYLAWYQQKPGQAPRLLIYGVSSRATGIPDRFSGSGSGTDFTLTISRLEPEDFAVYYCQQYGSSPRTFGQGTKVEIK | < 100 µg/mL | < 100 µg/mL | – | – | –
11 | HbnC3t1p2_B10 (antibody, V domains shown) VH: EVQLVESGGGLVQPGGSLRLSCAASGFIVSSNYMSWVRQAPGKGLEWVSVIYSGGSTFYADSVKGRFTISRDNSKNTLYLQMNSLRAEDTAVYYCARDYGDYFFDYWGQGTLVTVSS VL: EIVLTQSPGTLSLSPGERATLSCRASQSVSSYLAWYQQKPGQAPRLLISGASSRAAGIPDRFSGSGSGTDFTLTINRLEPEDFAVYYCQQYGSSPRTFGQGTKLEIK | < 100 µg/mL | < 100 µg/mL | – | – | –
12 | HbnC3t1p1_F4 (antibody, V domains shown) VH: QVQLVESGGGVVQPGRSLRLSCAATGFTFRRYGMHWVRQAPGKGLEWVAGILFDGSNKYYVDSVKGRFTISRDSSRNTLYLQLNSLRREDTAVYYCAKGGDYEWELLESWGQGTLVTVSS VL: DIQMTQSPSTVSASVGDRVTITCRASQSIDNWLAWYQEKPGKAPKVLIYKASSLESGVPSRFSGRGSGTEFTLTISSLQPGDFATYYCQHYHSFPLTFGGGTKVDIK | < 1000 µg/mL | < 100 µg/mL | – | – | –
13 | HbnC3t1p1_C6 (antibody, V domains shown) VH: QMQLVQSGPEVKKPGTSVKVSCKASGFTFTSSAVQWVRQARGQRLEWIGWIVVGSGNTNYAQKFQERVTITRDMSTSTAYMELSSLRSEDTAVYYCAAPHCSSTICYDGFDIWGQGTMVTVSS VL: not shown | < 100 µg/mL | < 100 µg/mL | – | – | –
14 | FnC1t1p2_A5 (antibody, V domains shown) VH: QVQLVQSGAEVKKPGASVKVSCKASGYTFTSYDINWVRQATGQGLEWMGWMNPNSGNTGYAQKFQGRVTMTRNTSISTAYMELSSLRSEDTAVYYCARATTDCSSTSCWSLDFWSGYYTGGREKIFDYWGQGTLVTVSS VL: not shown | – | – | – | > 1000 µg/mL | binding result [6]: no binding
15 | FnC1t2p1_D4 (antibody, V domains shown) VH: QVQLVQSGSELKKPGASVKVSCKASGYTFLRFAMNWLRQAPGQGLEWMGWIDTNTGTPTYAQGFTGRFVFSLDTSVSTAYLQISSLKAEDTAVYYCARSLRGANLVPWGQGTLVTVSS VL: DIQMTQSPSSLSASVGDRVTITCQASQDVSNYLNWYQQQPGKAPKLLIYDAFNLETGVPSRFSGSGSGTDFTFTISSLQPEDIATYYCQQYDNLPLTFGGGTKVEIK | – | – | < 100 µg/mL | < 100 µg/mL | Kd [3]: 0.2 nM
16 | FnC1t2p1_G5 (antibody, V domains shown) VH: QVQLVQSGSELKKPGASVKVSCKASGYTFLRFAMNWLRQAPGQGLEWMGWIDTNTGTPTYAQGFTGRFVFSLDTSVSTAYLQISSLKAEDTAVYYCARSLRGANLVPWGQGTLVTVSS VL: DIQMTQSPSSLSASVGDRVTITCQASQDVSNYLNWYQQQPGKAPKLLIYDAFNLETGVPSRFSGSGSGTDFTFTISSLQPEDIATYYCQQYDNLPLTFGGGTKVEIK | < 100 µg/mL | < 100 µg/mL | – | – | Kd [3]: 0.1 nM
17 | MnC2t1p1_A3 (antibody, V domains shown) VH: EVQLVESGGGLVQPGGSLRLSCAASGFTVSSNYMSWVRQAPGRGLEWVSVIYSGGSTFYADSVKGRFTISRDNSKNTLYLQMNSLRPEDTAVYYCATGARFGESPFDYWGQGTLVTVSS VL: DIQMTQSPSSVSASVGDRVTITCRASQGISSWLAWYQQKPGKAPKLLIYAASSLQSGVPSRFSGSGSGTDFTLTISSLQPEDFATYYCQQANSFPGTFGQGTKVEIK | – | – | – | – | Kd [3]: 0.7 nM; EC50 [4]: < 100 µg/mL; EC50 [5]: < 100 µg/mL
18 | MnC2t1p1_C5 (antibody, V domains shown) VH: EVQLVESGGGLVQPGGSLRLSCAASGFTVSSNYMSWVRQAPGKGLEWVSVIYSGGSTYYADSVKGRFTISRDNSKNTLYLQMNSLRAEDTAVYYCATGARFGESPFDYWGQGTLVTVSS VL: DIQMTQSPSSVSASVGDRVTITCRASQGISSWLAWYQQKPGKAPKLLIYAASSLQSGVPSRFSGSGSGTDFTLTISSLQPEDFATYYCQQANSFPGTFGQGTKVEIK | – | – | – | – | EC50 [4]: < 100 µg/mL; EC50 [5]: < 100 µg/mL
19 | HbnC2t1p2_D9 (antibody, V domains shown) VH: QVQLVESGGGVVQPGRSLRLSCAASGFTFSSYGMHWVRQAPGKGLEWVAVIWYDGRNKYYVDSVKGRFTISRDNSKNTLYLQISSLRAEDTAVYYCARAARRPVVTDTMAYYMDVWGKGTTVTVSS VL: EIVLTQSPATLSLSPGERATLSCRASLSLSSYLAWYQQKPGQAPRLLIYDASNRATGIPARFSGSGSGTDFTLTISSLEPEDFAVYYCQQRSNWPPTWTFGQGTKAEIKR | < 1000 µg/mL | < 1000 µg/mL | – | – | –
